From patent publication US20230277613A1, “Polysaccharide-Rich Bombax Costatum Flower Extract” (priority 2020, published 2023) come the findings set out here.

Marks after values point to notes of the source that are not given here.

The test deals with normal human keratinocyte monolayer (NHK). The test can be described thus: Scratch assay, migration of NHK. Type of test: cell-based. The conditions noted are these: EGF 100 ng/ml; 5 hours. As for the experimental part:
Scratch Assay: a lesion was performed on a mat of normal human keratinocyte monolayer (NHK) at confluence before treatment with BCP extract at 0.01% and 0.05% dry matter or with EGF (Epidermal Growth Factor) at 100 ng/ml. A photo was taken at the start of treatment and after 5 hours of incubation in order to measure the rate of progression of the HCNs within the lesion. The percentage of coverage was evaluated under the different conditions by image analysis. The significance of the results was assessed by Student's t test.

B1: EGF: Epidermal Growth Factor, reference in the scratch assay (protein, UniProt P01133 23-1207, looked up)
Pro-epidermal growth factor: PQHWSCPEGTLAGNGNSTCVGPAPFLIFSHGNSIFRIDTEGTNYEQLVVDAGVSVIMDFHYNEKRIYWVDLERQLLQRVFLNGSRQERVCNIEKNVSGMAINWINEEVIWSNQQEGIITVTDMKGNNSHILLSALKYPANVAVDPVERFIFWSSEVAGSLYRADLDGVGVKALLETSEKITAVSLDVLDKRLFWIQYNREGSNSLICSCDYDGGSVHISKHPTQHNLFAMSLFGDRIFYSTWKMKTIWIANKHTGKDMVRINLHSSFVPLGELKVVHPLAQPKAEDDTWEPEQKLCKLRKGNCSSTVCGQDLQSHLCMCAEGYALSRDRKYCEDVNECAFWNHGCTLGCKNTPGSYYCTCPVGFVLLPDGKRCHQLVSCPRNVSECSHDCVLTSEGPLCFCPEGSVLERDGKTCSGCSSPDNGGCSQLCVPLSPVSWECDCFPGYDLQLDEKSCAASGPQPFLLFANSQDIRHMHFDGTDYGTLLSQQMGMVYALDHDPVENKIYFAHTALKWIERANMDGSQRERLIEEGVDVPEGLAVDWIGRRFYWTDRGKSLIGRSDLNGKRSKIITKENISQPRGIAVHPMAKRLFWTDTGINPRIESSSLQGLGRLVIASSDLIWPSGITIDFLTDKLYWCDAKQSVIEMANLDGSKRRRLTQNDVGHPFAVAVFEDYVWFSDWAMPSVMRVNKRTGKDRVRLQGSMLKPSSLVVVHPLAKPGADPCLYQNGGCEHICKKRLGTAWCSCREGFMKASDGKTCLALDGHQLLAGGEVDLKNQVTPLDILSKTRVSEDNITESQHMLVAEIMVSDQDDCAPVGCSMYARCISEGEDATCQCLKGFAGDGKLCSDIDECEMGVPVCPPASSKCINTEGGYVCRCSEGYQGDGIHCLDIDECQLGEHSCGENASCTNTEGGYTCMCAGRLSEPGLICPDSTPPPHLREDDHHYSVRNSDSECPLSHDGYCLHDGVCMYIEALDKYACNCVVGYIGERCQYRDLKWWELRHAGHGQQQKVIVVAVCVVVLVMLLLLSLWGAHYYRTQKLLSKNPKNPYEESSRDVRSRRPADTEDGMSSCPQPWFVVIKEHQDLKNGGQPVAGEDGQAADGSMQPTSWRQEPQLCGMGTEQGCWIPVSSDKGSCPQVMERSFHMPSYGTQTLEGGVEKPHSLLSANPLWQQRALDPPHQMELTQ
modifications: Pro-epidermal growth factor
As for B1, the “Evolution compared to the control” value is on record as “+85% **”.
